# Results published in the supplement of paper PMC9112550, “Optimization of the antimicrobial peptide Bac7 by deep mutational scanning” (BMC Biology, 2022).
# System: Escherichia coli TOP10
# Assay: shrunken log2 fold change of peptide-encoding DNA abundance (4.5 h post-induction vs induction); higher = less antimicrobial activity (less host growth inhibition)
# Conditions: time post-induction: 4.5 h; library: site-saturation at positions 5, 18, 19, 20
# 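Note: peptides expressed intracellularly from a pBAD plasmid library in pooled LB shake-flask culture, induced with 0.3% L-arabinose, DNA abundance read by NGS, three biological replicates, DESeq2 with apeglm shrinkage.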
row,Sequence,shrunken log2 fold change
1,RRIRNRPPRLPRPRPRPEFVPRP,0.189
2,RRIRNRPPRLPRPRPRPEGGPRP,-0.00659
3,RRIRNRPPRLPRPRPRPEHCPRP,-0.0139
4,RRIRNRPPRLPRPRPRPEKCPRP,-0.0684
5,RRIRNRPPRLPRPRPRPESEPRP,0.0333
6,RRIRNRPPRLPRPRPRPESLPRP,0.0505
7,RRIRNRPPRLPRPRPRPEVCPRP,-0.049
8,RRIRNRPPRLPRPRPRPEVHPRP,-0.0167
9,RRIRNRPPRLPRPRPRPEVLPRP,-0.212
10,RRIRNRPPRLPRPRPRPEWDPRP,-0.00515
11,RRIRNRPPRLPRPRPRPEWHPRP,-0.285
12,RRIRNRPPRLPRPRPRPEWNPRP,0.0541
13,RRIRNRPPRLPRPRPRPEYPPRP,-0.243
14,RRIRNRPPRLPRPRPRPFAKPRP,0.637
15,RRIRNRPPRLPRPRPRPFCEPRP,-0.28
16,RRIRNRPPRLPRPRPRPFCRPRP,-0.223
17,RRIRNRPPRLPRPRPRPFCYPRP,0.166
18,RRIRNRPPRLPRPRPRPFDCPRP,0.0101
19,RRIRNRPPRLPRPRPRPFDSPRP,-0.303
20,RRIRNRPPRLPRPRPRPFESPRP,0.00843
21,RRIRNRPPRLPRPRPRPFFKPRP,0.0559
22,RRIRNRPPRLPRPRPRPFFWPRP,0.0463

row,Sequence,shrunken log2 fold change
1,RRIRNRPPRLPRPRPRPFFYPRP,-0.242
2,RRIRNRPPRLPRPRPRPFGDPRP,0.0215
3,RRIRNRPPRLPRPRPRPFGFPRP,-0.132
4,RRIRNRPPRLPRPRPRPFHAPRP,-0.0245
5,RRIRNRPPRLPRPRPRPFHIPRP,-0.0783
6,RRIRNRPPRLPRPRPRPFIQPRP,-0.737
7,RRIRNRPPRLPRPRPRPFLNPRP,-0.392
8,RRIRNRPPRLPRPRPRPFLRPRP,-0.0221
9,RRIRNRPPRLPRPRPRPFNKPRP,-0.72
10,RRIRNRPPRLPRPRPRPFNLPRP,-0.207
11,RRIRNRPPRLPRPRPRPFPFPRP,-0.22
12,RRIRNRPPRLPRPRPRPFPMPRP,-0.0139
13,RRIRNRPPRLPRPRPRPFQMPRP,-0.673
14,RRIRNRPPRLPRPRPRPFRAPRP,-0.00309
15,RRIRNRPPRLPRPRPRPFTHPRP,-0.374
16,RRIRNRPPRLPRPRPRPFTTPRP,-0.0245
17,RRIRNRPPRLPRPRPRPFYAPRP,-0.281
18,RRIRNRPPRLPRPRPRPFYMPRP,-0.18
19,RRIRNRPPRLPRPRPRPGCRPRP,0.123
20,RRIRNRPPRLPRPRPRPGDEPRP,0.0115
21,RRIRNRPPRLPRPRPRPGDHPRP,-0.0463
22,RRIRNRPPRLPRPRPRPGDMPRP,-0.21

row,Sequence,shrunken log2 fold change
1,RRIRNRPPRLPRPRPRPGETPRP,0.0546
2,RRIRNRPPRLPRPRPRPGFAPRP,0.444
3,RRIRNRPPRLPRPRPRPGFIPRP,0.0474
4,RRIRNRPPRLPRPRPRPGFMPRP,-0.0522
5,RRIRNRPPRLPRPRPRPGFYPRP,0.00223
6,RRIRNRPPRLPRPRPRPGHKPRP,0.0903
7,RRIRNRPPRLPRPRPRPGKEPRP,-0.311
8,RRIRNRPPRLPRPRPRPGKQPRP,-0.406
9,RRIRNRPPRLPRPRPRPGLAPRP,0.415
10,RRIRNRPPRLPRPRPRPGLTPRP,-0.0698
11,RRIRNRPPRLPRPRPRPGNQPRP,-0.00674
12,RRIRNRPPRLPRPRPRPGPYPRP,-0.00784
13,RRIRNRPPRLPRPRPRPGQRPRP,0.00993
14,RRIRNRPPRLPRPRPRPGSLPRP,-0.0901
15,RRIRNRPPRLPRPRPRPGSQPRP,0.0302
16,RRIRNRPPRLPRPRPRPGTHPRP,-0.16
17,RRIRNRPPRLPRPRPRPGVPPRP,0.457
18,RRIRNRPPRLPRPRPRPGWSPRP,0.2
19,RRIRNRPPRLPRPRPRPGWTPRP,0.0174
20,RRIRNRPPRLPRPRPRPGYEPRP,0.0608
21,RRIRNRPPRLPRPRPRPHDHPRP,0.171
22,RRIRNRPPRLPRPRPRPHEEPRP,-0.0188

row,Sequence,shrunken log2 fold change
1,RRIRNRPPRLPRPRPRPHEHPRP,-0.155
2,RRIRNRPPRLPRPRPRPHGQPRP,-0.0642
3,RRIRNRPPRLPRPRPRPHGSPRP,-0.00146
4,RRIRNRPPRLPRPRPRPHGWPRP,0.127
5,RRIRNRPPRLPRPRPRPHHQPRP,-1.12
6,RRIRNRPPRLPRPRPRPHHRPRP,0.0742
7,RRIRNRPPRLPRPRPRPHICPRP,-0.0994
8,RRIRNRPPRLPRPRPRPHNDPRP,-0.395
9,RRIRNRPPRLPRPRPRPHNFPRP,-0.436
10,RRIRNRPPRLPRPRPRPHNVPRP,-0.0343
11,RRIRNRPPRLPRPRPRPHQEPRP,-0.00146
12,RRIRNRPPRLPRPRPRPHREPRP,-0.00211
13,RRIRNRPPRLPRPRPRPHSSPRP,-0.00587
14,RRIRNRPPRLPRPRPRPHTCPRP,0.0167
15,RRIRNRPPRLPRPRPRPHTKPRP,-0.238
16,RRIRNRPPRLPRPRPRPHTPPRP,-0.317
17,RRIRNRPPRLPRPRPRPHTRPRP,0.0907
18,RRIRNRPPRLPRPRPRPHVAPRP,-0.0498
19,RRIRNRPPRLPRPRPRPHVHPRP,-0.109
20,RRIRNRPPRLPRPRPRPHWTPRP,0.0333
21,RRIRNRPPRLPRPRPRPHYTPRP,-0.0895
22,RRIRNRPPRLPRPRPRPIAAPRP,0.147

row,Sequence,shrunken log2 fold change
1,RRIRNRPPRLPRPRPRPIAEPRP,0.196
2,RRIRNRPPRLPRPRPRPICNPRP,-0.203
3,RRIRNRPPRLPRPRPRPIDQPRP,-0.058
4,RRIRNRPPRLPRPRPRPIFDPRP,-0.201
5,RRIRNRPPRLPRPRPRPIHEPRP,-0.00804
6,RRIRNRPPRLPRPRPRPILCPRP,-0.174
7,RRIRNRPPRLPRPRPRPILPPRP,-0.297
8,RRIRNRPPRLPRPRPRPILTPRP,-0.135
9,RRIRNRPPRLPRPRPRPIPQPRP,-0.35
10,RRIRNRPPRLPRPRPRPIQCPRP,-0.01
11,RRIRNRPPRLPRPRPRPIQKPRP,-0.287
12,RRIRNRPPRLPRPRPRPITPPRP,0.119
13,RRIRNRPPRLPRPRPRPIVEPRP,0.0466
14,RRIRNRPPRLPRPRPRPIVFPRP,-0.207
15,RRIRNRPPRLPRPRPRPIVTPRP,-0.179
16,RRIRNRPPRLPRPRPRPKDHPRP,-0.218
17,RRIRNRPPRLPRPRPRPKFIPRP,-0.602
18,RRIRNRPPRLPRPRPRPKFLPRP,0.0309
19,RRIRNRPPRLPRPRPRPKFSPRP,-0.0617
20,RRIRNRPPRLPRPRPRPKFTPRP,-0.0624
21,RRIRNRPPRLPRPRPRPKGCPRP,-0.0382
